Like-named read-outs stand apart in the source and are kept apart here.
Experiments:
[1] = target: PTH1R of the PathHunter CHO-K1 PTH1R β-arrestin cell line (UniProt Q03431)
[2] = target: PTH1R of the PathHunter CHO-K1 PTH1R β-arrestin cell line (UniProt Q03431); remark: listed apart in the source
[3] = target: PTH1R of the PathHunter CHO-K1 PTH1R β-arrestin cell line (UniProt Q03431); remark: listed apart in the source
[4] = target: T1, parathyroid hormone 1 receptor, C-tagged Citrine PTH1R (human, UniProt Q03431 27-593); assay: FRET or BRET; sensitized-emission FRET imaging at the cell surface (50-pixel membrane ROIs) of fixed COS-7 cells co-transfected with C-tagged Citrine PTH1R (acceptor) and C-tagged Cerulean RAMP (donor); NFRET as % of a Cerulean-Citrine fusion; FRET-based stoichiometric analysis (Hoppe et al., 2002); settings: partners not purified
T1 construct: parathyroid hormone 1 receptor (PTH1R), cDNA without its stop codon between HindIII and Not1 of pcDNA3.1 Citrine; also called parathyroid hormone receptor-1; PTHR1; source: COS-7, transfected (electroporation, pcDNA3.1), in fixed cells; not shown: Citrine, C-terminal, kept
T1 sequence (looked up): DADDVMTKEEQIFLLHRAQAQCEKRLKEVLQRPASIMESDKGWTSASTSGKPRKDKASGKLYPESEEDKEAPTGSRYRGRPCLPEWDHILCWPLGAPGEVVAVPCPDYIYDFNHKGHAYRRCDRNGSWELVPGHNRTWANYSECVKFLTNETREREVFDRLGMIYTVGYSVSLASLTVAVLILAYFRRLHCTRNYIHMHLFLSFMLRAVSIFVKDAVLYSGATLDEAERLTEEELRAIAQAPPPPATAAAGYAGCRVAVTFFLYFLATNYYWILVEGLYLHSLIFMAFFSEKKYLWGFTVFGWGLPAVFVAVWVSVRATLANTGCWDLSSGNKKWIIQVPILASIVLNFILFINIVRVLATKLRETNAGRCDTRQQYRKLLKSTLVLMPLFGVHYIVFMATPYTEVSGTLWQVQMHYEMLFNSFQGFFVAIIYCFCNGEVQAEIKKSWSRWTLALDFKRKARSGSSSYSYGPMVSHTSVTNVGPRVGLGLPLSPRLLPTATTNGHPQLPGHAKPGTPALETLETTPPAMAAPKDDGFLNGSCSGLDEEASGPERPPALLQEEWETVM

[5] = target: T1, parathyroid hormone 1 receptor, …; assay: as above; settings: partners not purified; remark: listed apart in the source

PTHrP (1-141) (ligand) showed an efficacy, cAMP accumulation, CHO-K1 PTH1R + RAMP2 cells [1] of 85.3%, an efficacy, cAMP accumulation, CHO-K1 PTH1R + RAMP3 cells [1] of 55.7% and an efficacy, cAMP accumulation, CHO-K1 PTH1R parental cells (mock) [1] of 74.9%. It also gave a pEC50, cAMP accumulation, CHO-K1 PTH1R + RAMP2 cells [1] of 9.25 pEC50, a pEC50, cAMP accumulation, CHO-K1 PTH1R + RAMP3 cells [1] of 7.86 pEC50 and a pEC50, cAMP accumulation, CHO-K1 PTH1R parental cells (mock) [1] of 9.23 pEC50.

Work on PTH (1-34) (peptide) yielded an efficacy, cAMP accumulation (Gαs), CHO-K1 PTH1R + RAMP2 cells [2] of 79.4%, an efficacy, cAMP accumulation (Gαs), CHO-K1 PTH1R + RAMP3 cells [2] of 65.1% and an efficacy, cAMP accumulation (Gαs), CHO-K1 PTH1R parental cells (mock) [2] of 68.1%. The efficacy, cAMP accumulation after pertussis toxin (cAMP + PTX), CHO-K1 PTH1R + RAMP2 cells [2] was 71.6%, the efficacy, cAMP accumulation after pertussis toxin (cAMP + PTX), CHO-K1 PTH1R + RAMP3 cells [2] was 28.7% and the efficacy, cAMP accumulation after pertussis toxin (cAMP + PTX), CHO-K1 PTH1R parental cells (mock) [2] was 33.5%. The efficacy, calcium influx (Gαq), CHO-K1 PTH1R + RAMP2 cells [2] was 63.5%, the efficacy, calcium influx (Gαq), CHO-K1 PTH1R parental cells (mock) [2] was 19.8% and the efficacy, β-arrestin recruitment, CHO-K1 PTH1R + RAMP2 cells [2] was 103%. The efficacy, β-arrestin recruitment, CHO-K1 PTH1R parental cells (mock) [2] was 6.31%, the pEC50, cAMP accumulation (Gαs), CHO-K1 PTH1R + RAMP2 cells [2] was 9.55 pEC50 and the pEC50, cAMP accumulation (Gαs), CHO-K1 PTH1R + RAMP3 cells [2] was 8.55 pEC50. It also gave a pEC50, cAMP accumulation (Gαs), CHO-K1 PTH1R parental cells (mock) [2] of 9.3 pEC50, a pEC50, cAMP accumulation after pertussis toxin (cAMP + PTX), CHO-K1 PTH1R + RAMP2 cells [2] of 10 pEC50 and a pEC50, cAMP accumulation after pertussis toxin (cAMP + PTX), CHO-K1 PTH1R + RAMP3 cells [2] of 8.48 pEC50. For the same molecule, the pEC50, cAMP accumulation after pertussis toxin (cAMP + PTX), CHO-K1 PTH1R parental cells (mock) [2] was 8.9 pEC50, the pEC50, calcium influx (Gαq), CHO-K1 PTH1R + RAMP2 cells [2] was 8.21 pEC50 and the pEC50, calcium influx (Gαq), CHO-K1 PTH1R parental cells (mock) [2] was 8.9 pEC50. The pEC50, β-arrestin recruitment, CHO-K1 PTH1R + RAMP2 cells [2] was 8.19 pEC50 and the pEC50, β-arrestin recruitment, CHO-K1 PTH1R parental cells (mock) [2] was 8.6 pEC50.

In the case of PTHrP (1-108) (domain or fragment), the efficacy, cAMP accumulation, CHO-K1 PTH1R + RAMP2 cells [1] is reported as 81.4%, the efficacy, cAMP accumulation, CHO-K1 PTH1R parental cells (mock) [1] is reported as 72.8% and the pEC50, cAMP accumulation, CHO-K1 PTH1R + RAMP2 cells [1] is reported as 8.61 pEC50. For the same molecule, the pEC50, cAMP accumulation, CHO-K1 PTH1R parental cells (mock) [1] was 8.25 pEC50.

B1: PTH (1-84) (ligand)
chain: SVSEIQLMHNLGKHLNSMERVEWLRKKLQDVHNFVALGAPLAPRDAGSQRPRKKEDNVLVESHEKSLGEADKADVNVLTKAKSQ
For B1, the efficacy, cAMP accumulation (Gαs), CHO-K1 PTH1R + RAMP2 cells [3] was 95.5%, the efficacy, cAMP accumulation (Gαs), CHO-K1 PTH1R + RAMP3 cells [3] was 72.2% and the efficacy, cAMP accumulation (Gαs), CHO-K1 PTH1R parental cells (mock) [3] was 86.6%. It also gave an efficacy, cAMP accumulation after pertussis toxin (cAMP + PTX), CHO-K1 PTH1R + RAMP2 cells [3] of 94.3%, an efficacy, cAMP accumulation after pertussis toxin (cAMP + PTX), CHO-K1 PTH1R + RAMP3 cells [3] of 71.5% and an efficacy, cAMP accumulation after pertussis toxin (cAMP + PTX), CHO-K1 PTH1R parental cells (mock) [3] of 85.5%. The efficacy, calcium influx (Gαq), CHO-K1 PTH1R + RAMP2 cells [3] was 82.2%, the efficacy, β-arrestin recruitment, CHO-K1 PTH1R + RAMP2 cells [3] was 104% and the efficacy, β-arrestin recruitment, CHO-K1 PTH1R parental cells (mock) [3] was 6.08%. For the same molecule, the pEC50, cAMP accumulation (Gαs), CHO-K1 PTH1R + RAMP2 cells [3] was 9.24 pEC50, the pEC50, cAMP accumulation (Gαs), CHO-K1 PTH1R + RAMP3 cells [3] was 7.55 pEC50 and the pEC50, cAMP accumulation (Gαs), CHO-K1 PTH1R parental cells (mock) [3] was 8.2 pEC50. It also gave a pEC50, cAMP accumulation after pertussis toxin (cAMP + PTX), CHO-K1 PTH1R + RAMP2 cells [3] of 9.01 pEC50, a pEC50, cAMP accumulation after pertussis toxin (cAMP + PTX), CHO-K1 PTH1R + RAMP3 cells [3] of 7.51 pEC50 and a pEC50, cAMP accumulation after pertussis toxin (cAMP + PTX), CHO-K1 PTH1R parental cells (mock) [3] of 7.8 pEC50. The pEC50, calcium influx (Gαq), CHO-K1 PTH1R + RAMP2 cells [3] was 7.38 pEC50, the pEC50, β-arrestin recruitment, CHO-K1 PTH1R + RAMP2 cells [3] was 8.1 pEC50 and the pEC50, β-arrestin recruitment, CHO-K1 PTH1R parental cells (mock) [3] was 8.4 pEC50.

B2: receptor activity-modifying protein 2, C-tagged Cerulean RAMP2 (natural protein, human, UniProt O60895 43-175, looked up)
chain: QPLPTTGTPGSEGGTVKNYETAVQFCWNHYKDQMDPIEKDWCDWAMISRPYSTLRDCLEHFAELFDLGFPNPLAERIIFETHQIHFANCSLVQPTFSDPPEDVLLAMIIAPICLIPFLITLVVWRSKDSEAQA
notes: RAMP2, cDNA without its stop codon between Kpn1 and Not1 of pcDNA3.1 Cerulean; source: COS-7, transfected (electroporation, pcDNA3.1), in fixed cells; not shown: Cerulean, C-terminal, kept
B2 was tested, and the “stoichiometry N” value [4] was ~1 RAMP2 per PTH1R, the “R (molar ratio of acceptor to donor)” value [5] was 1.27 ± 0.31 PTH1R (acceptor) per RAMP2 (donor) and the “cell membrane NFRET relative to cer-cit fusion” value [5] was 48.8 ± 4.1%.

B3: receptor activity-modifying protein 3, C-tagged Cerulean RAMP3 (natural protein, human, UniProt O60896 24-148, looked up)
chain: RAGGCNETGMLERLPLCGKAFADMMGKVDVWKWCNLSEFIVYYESFTNCTEMEANVVGCYWPNPLAQGFITGIHRQFFSNCTVDRVHLEDPPDEVLIPLIVIPVVLTVAMAGLVVWRSKRTDTLL
notes: RAMP3, cDNA without its stop codon between Kpn1 and Not1 of pcDNA3.1 Cerulean; source: COS-7, transfected (electroporation, pcDNA3.1), in fixed cells; not shown: Cerulean, C-terminal, kept
For B3, the “stoichiometry N” value [4] was ~2 RAMP3 per PTH1R, the “R (molar ratio of acceptor to donor)” value [5] was 0.37 ± 0.06 PTH1R (acceptor) per RAMP3 (donor) and the “cell membrane NFRET relative to cer-cit fusion” value [5] was 32 ± 4.7%.
